One block for each binder: values may come before it.
Experiments:
6His-SUMO-Cap2 = target: T1, 6His-SUMO-Cap2 (budding yeast, UniProt P13517 1-287); experiment: pull-down
T1 sequence (looked up): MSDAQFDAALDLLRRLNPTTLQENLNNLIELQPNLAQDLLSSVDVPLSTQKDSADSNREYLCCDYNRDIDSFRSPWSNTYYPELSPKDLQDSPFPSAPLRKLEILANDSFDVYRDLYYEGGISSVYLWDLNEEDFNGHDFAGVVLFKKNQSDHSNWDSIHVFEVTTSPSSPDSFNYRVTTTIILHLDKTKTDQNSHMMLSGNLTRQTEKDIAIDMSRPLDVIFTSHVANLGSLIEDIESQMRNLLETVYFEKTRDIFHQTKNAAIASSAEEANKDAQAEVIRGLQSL

[1] = target: T2, Aim21 (Altered Inheritance of Mitochondria 21), full length, 6His-SUMO tag cleaved (budding yeast, UniProt P40563 1-679); experiment: pull-down
T2 sequence (looked up): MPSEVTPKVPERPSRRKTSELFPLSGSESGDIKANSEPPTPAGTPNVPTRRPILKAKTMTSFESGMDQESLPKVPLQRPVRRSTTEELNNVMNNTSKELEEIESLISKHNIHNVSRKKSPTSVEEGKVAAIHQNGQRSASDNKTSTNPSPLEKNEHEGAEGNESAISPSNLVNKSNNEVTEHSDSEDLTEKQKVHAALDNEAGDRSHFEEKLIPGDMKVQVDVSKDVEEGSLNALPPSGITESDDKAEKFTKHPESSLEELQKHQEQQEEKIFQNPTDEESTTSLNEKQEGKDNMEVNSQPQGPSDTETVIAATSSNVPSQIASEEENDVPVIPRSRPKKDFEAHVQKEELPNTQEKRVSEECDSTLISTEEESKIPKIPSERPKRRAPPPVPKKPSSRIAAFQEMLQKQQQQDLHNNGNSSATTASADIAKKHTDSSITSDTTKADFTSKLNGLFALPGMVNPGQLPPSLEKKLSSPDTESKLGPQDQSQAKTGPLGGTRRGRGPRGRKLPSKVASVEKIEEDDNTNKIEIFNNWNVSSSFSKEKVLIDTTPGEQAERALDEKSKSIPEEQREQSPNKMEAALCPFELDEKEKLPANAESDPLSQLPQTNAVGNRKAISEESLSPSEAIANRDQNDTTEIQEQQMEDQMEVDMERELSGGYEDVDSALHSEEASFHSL

binding result (6His-SUMO-Cap2): binds
B1: Cap1, 6His-SUMO tag cleaved (natural protein, budding yeast, UniProt P28495 1-268, looked up)
chain: MSSSKFEEVINKIINDSPPGELREVYDDLIKITSENSKNTILDAIENYNVQNCIPIEVNGNSVIISKYNKEGAKFFDPVNSVIFSVNHLERKGLDIEPYEFTHAKIEKGQLKELHDKLHEYLLQSFPGDVSFAVYPVPEEISKISIIIVSTKYNPNNFWNGHWRSSYIYDLETRELSGQISTQVHYYEDGNVSFQSGKDINQSNVDDVVCTIRDIETNFENDLDLSFFDLNEKQFKALRRRLPVTRSKINWGSAIGSYRLGKNAAEGK

binding result [1]: binds
B2: 6His-SUMO-Tda2 (natural protein, budding yeast, UniProt P40045 1-126, looked up)
chain: MSMQIEIKDGRSDNSPLPERKLVTLIQESYDSLKDDNEINLSTESTSNLLIKLVLEKLEKHSSLYKYIASVTTLNIEGLNEENANFSLKNDIGASWESKKDGIFNYKLEDKNNNECYLITILWLHK
